B1: HDV Ribozyme (parent)
chain: GGCCGGCAUGGUCCCAGCCUCCUCGCUGGCGCCGGCUGGGCAACAUUCCGAGGGGACCGUCCCCUCGGUAAUGGCGAAUGGGACCCA

Variants of: B1
Experiment: self-cleavage, relative activity (ratio to wild type); higher = more cleavage; co-transcriptional

| Variant | self-cleavage |
| --- | --- |
| GGCCGGCAUGGUCCCAGCCUCCUCGCUGGCGCCGGCUGGGCAACAUUCCGAGGGGACCGUCCCCUCGGUAAUUGCGAAUGGGAACCA [G73U C84A] | 0.158 |
| GGCCGGCAUGGUCCCAGCCUCCUCGCUGGCGCCGGCUGGGCAACAUUCCGACGGGACCGUCGCCUCGGUAAUGGCGAAUGGGACCCA [G52C C62G] | 0.383 |
| GGCCGGCAUGGUCCCAGCCUCCUCGCUGGCGCCGGAUCGGCAACAUUCCGAGGGGACCGUCCCCUCGGUAAUGGCGAAUGGGACCCA [C36A G38C] | 0.0415 |
| GGUCGGCUUGGUCCCAGCCUCCUCGCUGGCGCCGGCUGGGCAACAUUCCGAGGGGACCGUCCCCUCGGUAAUGGCGAAUGGGACCCA [C3U A8U] | 0.656 |
| GGCCGGCAUGGUCCCAGCGUCCUCGCUGGCGCCGGCUGGGCAACAUUCCGAGAGGACCGUCCCCUCGGUAAUGGCGAAUGGGACCCA [C19G G53A] | 0.041 |
| GGCCGGCAUGGGCCCAGCCUCCUCGCUGGCGCCGGCUGGGCAACAUUCCGAGGGGACCGUCCCCUCGGUAAUGCCGAAUGGGACCCA [U12G G74C] | 0.151 |
| GGCCGGCAUUGUCCCAGCCUCCUCGCUGGCGCCGGCUGCGCAACAUUCCGAGGGGACCGUCCCCUCGGUAAUGGCGAAUGGGACCCA [G10U G39C] | 0.138 |
| AGCCGGCCUGGUCCCAGCCUCCUCGCUGGCGCCGGCUGGGCAACAUUCCGAGGGGACCGUCCCCUCGGUAAUGGCGAAUGGGACCCA [G1A A8C] | 0 |
| GGCCGGCAUGGUCCCAGCCUCCUGGCUGGCGCCGGCAGGGCAACAUUCCGAGGGGACCGUCCCCUCGGUAAUGGCGAAUGGGACCCA [C24G U37A] | 0.0674 |
| GGCCGGCAUGGUCCCAGGCUCCUCGCUGGCGCCGGCUGGGCAAAAUUCCGAGGGGACCGUCCCCUCGGUAAUGGCGAAUGGGACCCA [C18G C44A] | 0 |
| GGCCGGCAUGGUCCCAGCCUCCUCGCCGGCGCCGGCUGGGCAACAUUCCGAGGGGACCGUCCCCUCGGUAAUGGCGAAUGGGACCUA [U27C C86U] | 0.745 |
| GGCCGGCAUGGUCCCAGCCUCCUCGCUGGCGCCGUCUGGGCAACAUUCCGAGGGGACCGUCCCCUCGGUCAUGGCGAAUGGGACCCA [G35U A70C] | 0.354 |
| GGCCGGCAUGGCCCCAGCCUCCUCGCUGGCGCCGGCUGGGCAACAUUCCGAGGGGAUCGUCCCCUCGGUAAUGGCGAAUGGGACCCA [U12C C57U] | 0.293 |
| GGCCGGCAUGGUCCCAGACUCCUCGCUGGCGCCGGCUGGGCAACAUUCCGAGGGGACCGGCCCCUCGGUAAUGGCGAAUGGGACCCA [C18A U60G] | 0 |
| GGCCGGCAUGGUCCCAGCCUCCUCGCUGGCGCCGGCUAGGCAACAUUCCGUGGGGACCGUCCCCUCGGUAAUGGCGAAUGGGACCCA [G38A A51U] | 0.268 |
| GGGCGGCAUGGUCCCAGCCUCCUCGCUGGCGCCGGCUGGGCACCAUUCCGAGGGGACCGUCCCCUCGGUAAUGGCGAAUGGGACCCA [C3G A43C] | 0.261 |

| Variant | self-cleavage |
| --- | --- |
| GGCCGGCAUGGUCCCAGCCACCUCGCUGGCGCCGGCUGGGAAACAUUCCGAGGGGACCGUCCCCUCGGUAAUGGCGAAUGGGACCCA [U20A C41A] | 0.0396 |
| GGCCGGCAUGGUCCCAGCCUCCUCGCUGGCGCCGGCUGGGCAACAUUUCGAGGGCACCGUCCCCUCGGUAAUGGCGAAUGGGACCCA [C48U G55C] | 0.938 |
| GGCCGGCAUGGUCCCAGCCUCCUCGCUGGCGCCGGCUGGGCAACAUUCCGAGGGGACCGUCCCCUCGGUAAUGGCGAAUGUUACCCA [G81U G82U] | 0.211 |
| GGCCGGCAUGGUACCAGCCUCCGCGCUGGCGCCGGCUGGGCAACAUUCCGAGGGGACCGUCCCCUCGGUAAUGGCGAAUGGGACCCA [C13A U23G] | 0.0923 |
| GGCCGGCAUGGUCCCAGCCUCCUCGCCGGCGCCGGCUGGGCAACAUUCCCAGGGGACCGUCCCCUCGGUAAUGGCGAAUGGGACCCA [U27C G50C] | 0.858 |
| GGCCGGCAUGGUCCCAGCCUCCUCGCUGGCGCCGGCUGGGCAACAUUCCGAGGGGACCGUCACCUCGGUAAUGGCGAAUGGGGCCCA [C62A A83G] | 0.683 |
| GGCCGGCAUGGUCCCAGCCUCCUCGCUGGCGCCUGCUGGCCAACAUUCCGAGGGGACCGUCCCCUCGGUAAUGGCGAAUGGGACCCA [G34U G40C] | 0.0415 |
| GGCCGGCAUGGUCCCAGCCUCCCCGCUGGCCCCGGCUGGGCAACAUUCCGAGGGGACCGUCCCCUCGGUAAUGGCGAAUGGGACCCA [U23C G31C] | 0.141 |
| GGCCGGCAUGGUGCCAGCCUCCUCGCUGGCGCCGGCUGGGCAACAUUCCGAGGGGACCGUCCCCUCGGUAAUGGCGAAUGGGAACCA [C13G C84A] | 0 |
| GGCCGGCAUGGUCCCAGCCUCCUCGCUGCCGCCGGCUGGGCAACAUUCCGAGGGGACCGUCCGCUCGGUAAUGGCGAAUGGGACCCA [G29C C63G] | 0.0489 |
| GGCCGGCACGGUCCCAGCCUCCUCGCUGGCGCCGGCUGGGCAACAUUCCGAGGGGACCGUCCCCUCGGUAAUGGCGAAUGGUACCCA [U9C G82U] | 0.201 |
| GGCCGGCAUGGUCCCAGCCUCCUCGCUGGCGCCGGCUGGGCAACAUUCCGAGGGGACCGUCGGCUCGGUAAUGGCGAAUGGGACCCA [C62G C63G] | 0.706 |
| GGCCGGGAUGGUCCCAGCCUCCUCGCUGGCGCCGGCUGGGCAACAUUCCGAGGGGACCGUCCCCUCGGUAUUGGCGAAUGGGACCCA [C7G A71U] | 0.0639 |
| GGUCGGCAUGGUCCCAGCCUCCUCGCUGGCGCCGGCUGGGCAACAUUCCGAGGGGACCGUCCCCACGGUAAUGGCGAAUGGGACCCA [C3U U65A] | 0.872 |
| GGCCGGCAUGGUCCCAGCCUCCUCGCUGGCGCCCGCUGGGCAACAUUCCGAGGGGACCGUCCCCUCGAUAAUGGCGAAUGGGACCCA [G34C G68A] | 0.0692 |
| GGCCGGCAUGGUCCCAGCCUCCUCGCGGGCGCCGGCUGGGCAACAUUCCGAGGGGACCGUCCCCUCGGUAAUGGCGAAUGGGACCUA [U27G C86U] | 1.15 |

From the RNAGym collection of RNA variant scans (doi:10.7554/elife.80360)
